Tests used:
[1] = tested on: ZDF fa/fa rats; assay: 21-day ZDF fa/fa study: serum total cholesterol and triglyceride; type: in vivo, rat; conditions: day 21
Protocol: Animals. Male ZDF fa/fa rats were obtained from CRL (Kingston, N.Y.). Upon arrival, rats were seven weeks of age. The rats were housed individually per cage in a room with a photo cycle of 12 hours of light and 12 hours of dark and an ambient temperature of 70-72° F. and fed on regular rodent diet and water ad libitum. At the age of eleven weeks, rats were divided into six groups (Table 5) of eight rats per group based on fasting blood glucose levels. A sub-group of four rats per group was maintained in parallel to the main groups and was dosed similarly for twenty-one days for a hyperinsulinemic-euglycemic clamp study. […]
An oral glucose tolerance test (OGTT) was performed on Day 0, 7, 14 and 21 for each group of the study. Plasma samples were collected at each time point during OGTT to also measure insulin levels. Body weight, food and water intake were measured twice a week. Blood pressure and heart rates were monitored on Day 0, 7, 14 and 21 using a non-invasive tail cuff method (with five readings per rat taken and then averaged). Fasting serum samples were collected on Day 0, 7, 14 and 21 before OGTT for determination of triglyceride and total cholesterol level. Urine samples were collected on Day 7 and 14 for the determination of glycosuria. Glycated (Glycosylated) hemoglobin (HbA1c) was measured at the end of the study. Assay kits for these studies were as presented in Table 6, and were used according to the suppliers' instructions.
The mean change in fasting blood glucose (mg/dL), serum cholesterol (mg/dL) and systolic blood pressure (mm Hg) from baseline (Day 0) to Day 21 was compared between the high-dose (5F12G1, 0.2 mg/kg) and negative control (MG2b-57, 0.2 mg/kg) groups using an analysis of covariance to adjust for baseline levels. The mean HbA1c percentage in high-dose (5F12G1, 0.2 mg/kg) rats was compared to the mean HbA1c percentage for negative control (MG2b-57, 0.2 mg/kg) rats using an unequal-variance, independent two-sample t-test. A significance level of a=0.05 was used for all tests, and all analyses were conducted using SAS statistical software (vs. 9.2, Cary, N.C., U.S.A.).

[2] = tested on: RS-4;11; assay: MTT Cell Proliferation Assay, RS-4;11; type: cell-based, human; conditions: 120 hours of exposure
Text: (§1) This Example describes characterization of the cytotoxic activity of herein described anti-BKB2R monoclonal antibodies against a panel of cancer cell lines. BxPC-3 is a human adenocarcinoma cell line originally isolated from the pancreas (pancreatic cancer) (ATCC # CRL-1687; Tan et al., Cancer Invest. 4: 15-23, 1986. PubMed: 3754176). MV-4-11 is a human biphenotypic B myelomonocytic leukemia (mixed-lineage leukemia, MLL-AF4) cell line originally isolated from the peripheral blood (ATCC # CRL-959; Lange et al., Blood 70: 192-199, 1987. PubMed: 3496132). Hep G2 is a human hepatocellular carcinoma cell line isolated from the liver (liver cancer) (ATCC # HB-8065; Aden et al., Nature 282: 615-616, 1979. PubMed: 233137). RS4;11 is a human acute lymphoblastic leukemia (mixed-lineage leukemia, MLL-AF4) cell line isolated from the bone marrow (ATTC # CRL-1873) Stong et al., Blood 65: 21-31, 1985. PubMed: 3917311). HT-29 is a human colorectal adenocarcinoma (ATTC # HTB-38) cell line isolated from the colon (colon cancer). Fogh et al., J. Natl. Cancer Inst. 58: 209-214, 1977. PubMed: 833871). NUGC-4 is a human stomach carcinoma isolated from the stomach paragastiric lymph node (JCRB # JCRB0834; Akiyama et al., Jpn. J. Surg., 18: 438-446, 1988). […]
(§2) The anti-proliferative activity of test compounds against the indicated cell lines was evaluated in vitro using the ATCC's MTT Cell Proliferation Assay (Catalog No. 30-1010K). After the 120 hour incubation with drug (e.g., anti-BKB2R mAb or cisplatin), cell proliferation was measured by addition of MTT reagent to each well and incubation for an additional 4 hrs. […] Optical absorbance (570 nm) of the test wells was measured and then quantitated relative to control wells that received no drug. Results were expressed as percent inhibition versus compound concentration and graphed, as shown in FIGS. 19-25, for cell lines BxPC-3, MV-4;11, HepG2, RS-4;11, HT-29, NUGC-4, and PC-3, respectively.

[3] = tested on: HT-29; assay: MTT Cell Proliferation Assay, HT-29; type: cell-based, human; conditions: 120 hours of exposure
Text: as §1, §2

B1: 5F12G1: murine monoclonal anti-BKB2R antibody (IgG2b,κ), VH comprising SEQ ID NO:1, VL comprising SEQ ID NO:2 (antibody, listed as Mus musculus, V domains shown)
VH: EVKLEESGGGLVQPGGSMKLSCVVSGFTFSDYWMSWVRHSPEMGLEWVAEIRLKSDNYATHYAESVKGRFTISRDDSKSRLYLQINSLRGEDTGIYYCTRDYYAMEYWGQGTSVTVSS
VL: DVVMTQTPLSLPVSLGDQASISCRSSQTIVHSNGKTYLEWYLQKPGQSPKLLIYKVSNRFSGVPDRFSGSGSGTEFTLKISRVETEDLGVYYCFQASHVPYTFGGGTKLEIK
With B1 the serum cholesterol ([1]; 0.008 mg/kg s.c. every 3 days) was 167 ± 7 mg/dL, the serum cholesterol ([1]; 0.04 mg/kg s.c. every 3 days) was 162 ± 18 mg/dL and the “decrease of serum cholesterol from baseline” value ([1]; 0.2 mg/kg s.c. every 3 days) was 12 ± 8 mg/dL. For the same molecule, the serum cholesterol ([1]; 0.2 mg/kg s.c. every 3 days) was 145 ± 26 mg/dL, the “EC 50 Values (ng/ml) RS-4;11” value [2] was 15000 ng/mL and the “EC 50 Values (ng/ml) HT-29” value [3] was 16000 ng/mL.
